This is an account of results in patent publication US20230272082A1 (SENSEI BIOTHERAPEUTICS, published 2023).

Test [1] deals with T1, human VISTA (human, UniProt Q9H7M9 33-194, limits assumed).
T1 construct: also called hVISTA
Put plainly: flow cytometry on CHO-VISTA cells, pH 7.4, detection Anti-Fab 647 (legend: Fab on CHO-VISTA cells).

Test [2] has as its target T1, human VISTA. Nature of the test: flow cytometry on CHO-VISTA cells, pH 6.0, detection Anti-Fab 647 (legend: Fab on CHO-VISTA cells).
The target in test [3] is T2, biotinylated hVISTA-Fc (human, biotinylated (site not stated)).
T2 construct: also called Human VISTA-Fc
T2 chain: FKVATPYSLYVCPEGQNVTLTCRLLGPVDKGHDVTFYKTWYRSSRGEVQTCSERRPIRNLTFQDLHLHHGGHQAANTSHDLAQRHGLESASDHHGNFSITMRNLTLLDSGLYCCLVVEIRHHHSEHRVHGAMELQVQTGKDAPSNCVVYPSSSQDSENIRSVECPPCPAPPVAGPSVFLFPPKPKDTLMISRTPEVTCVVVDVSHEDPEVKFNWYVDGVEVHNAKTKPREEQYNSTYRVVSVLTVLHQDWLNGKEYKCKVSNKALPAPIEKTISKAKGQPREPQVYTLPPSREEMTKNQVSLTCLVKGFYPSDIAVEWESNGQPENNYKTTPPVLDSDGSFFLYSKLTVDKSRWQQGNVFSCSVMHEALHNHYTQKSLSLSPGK
Nature of the test: competition ELISA at pH 6.0; SNS-101 dilutions pre-incubated with biotinylated hVISTA-Fc, then added to wells coated with PSGL-1 (blocked partner).

Test [4] has as its target T2, biotinylated hVISTA-Fc. Put plainly: competition ELISA at pH 6.0; SNS-101 dilutions pre-incubated with biotinylated hVISTA-Fc, then added to wells coated with VSIG-8 (blocked partner).
For test [5], the target named is T2, biotinylated hVISTA-Fc. Put plainly: competition ELISA at pH 6.0; SNS-101 dilutions pre-incubated with biotinylated hVISTA-Fc, then added to wells coated with VSIG-3 (blocked partner).
Test [6] deals with T2, biotinylated hVISTA-Fc. Put plainly: competition ELISA at pH 6.0; SNS-101 dilutions pre-incubated with biotinylated hVISTA-Fc, then added to wells coated with Syndecan-2 (blocked partner).
The target of test [7] is T2, biotinylated hVISTA-Fc. Nature of the test: competition ELISA at pH 6.0; SNS-101 dilutions pre-incubated with biotinylated hVISTA-Fc, then added to wells coated with LRIG-1 (blocked partner).

B1: antibody 55873 (mab#2) (antibody, V domains shown)
VH: EVQLVESGGGLVQPGGSLRLSCAASGFTFSSYSMNWVRQAPGKGLEWVSYISSSSSTIYYADSVKGRFTISRDNAKNSLYLQMNSLRAEDTAVYYCAREAGGVVGRVDFQHWGQGTLVTVSS
VL: DIQMTQSPSSLSASVGDRVTITCQASQDISNYLNWYQQKPGKAPKLLIYDASNLETGVPSRFSGSGSGTDFTFTISSLQPEDIATYYCQQADFLPPWTFGGGTKVEIK
notes: Fully human parental antibody; also called Anti-VISTA mAb #2
As for B1, the “FOB (fold over background)” value with human VISTA [1] was determined as 34.8; with human VISTA [2], 29.4.

B2: SNS-101 (antibody, human IgG1, V domains shown)
VH: EVQLVESGGGLVQPGGSLRLSCAASGFTFDDYSMNWVRQAPGKGLEWVSYISSDADTIYYADSVKGRFTISRDNAKNSLYLQMNSLRAEDTAVYYCAREAGGVLGRVDFQHWGQGTLVTVSS
VL: DIQLTQSPSSLSASVGDRVTITCQASQDISNYLNWYQQKPGKAPKLLIYDASNLGTGVPSRFSGSGSGTDFTFTISSLQPEDIATYYCQQADFVPPWTFGGGTKVEIK
notes: Described as a fully human IgG1; also called antibody 67375
Turning to B2, the IC50 in the test with biotinylated hVISTA-Fc [3] was 7 nM; with biotinylated hVISTA-Fc [4], 6 nM; with biotinylated hVISTA-Fc [5], 6 nM; with biotinylated hVISTA-Fc [6] it was 6 nM; in the test with biotinylated hVISTA-Fc [7] it was 6 nM.
